Results on 1 substance are retold here after publication PMC4851294 (PLoS ONE, 2016).

What is called Km is the substrate concentration at which the rate is half of its maximum. In general, kcat refers to the number of substrate molecules converted per active site and unit of time at saturation. The term kcat/Km denotes the second-order rate constant that governs catalysis at low substrate concentration.

For the data set, the system named is O=C[C@H](O)[C@H](O)COP(=O)(O)O. Kind of data set: purified protein.

In the case of “3-deoxy-D-arabino-heptulosonate 7-phosphate synthase (MtuDAH7PS) (Mycobacterium tuberculosis H37Rv)”, the Km was determined as 28 ± 2 µM, the kcat was found to be 4.7 ± 0.1 s⁻¹ and the kcat/Km was 170000 ± 20000 M⁻¹ s⁻¹.
